According to PMC9091920 (Journal of Pharmaceutical Analysis, 2021):

How the values were obtained:
[1] = molecular target: recombinant human interferon α2b (human) (UniProt P01563); assay: lateral-flow immunochromatographic strip
[2] = molecular target: recombinant human interferon α2b (human) (UniProt P01563); assay: far-Western, overlay or dot blot
[3] = molecular target: recombinant human interferon α2b (human) (UniProt P01563); assay: BLI

B1: nanobody I22 (His-labeled, purified) (VHH)
VHH: QVQLVESGGGLVQPGGSLRLSCVASGFTFDSATMSWHRQAPGREREFVAMTSGGGMINYANSVKGRFTISRDNAKNTVYLQMDSLKPEDTAVYYCHRLGTFHWGQGTQVTVSS
[1]
  limit of detection: 1 µg/mL
[2]
  limit of detection: 31.2 ng
[3]
  Kd: 2.06 nM
